Here are results for four substances from publication PMC6403000.

Common to all, as to experiment: SEC
On the technique in general: In gel filtration, larger molecules generally elute earlier.

In experiment [1] the target is CtHsp104 lacking the NTD with mutated Walker B motifs (E275Q:E679Q) (Calcarisporiella thermophila).
Experiment [2] has as its target CtHsp104 lacking the NTD (residues 153-882) (Calcarisporiella thermophila).
The target in experiment [3] is CtHsp104 lacking the NTD with mutated arginine fingers (R328M/R757M) (Calcarisporiella thermophila).
In experiment [4] the target is CtHsp104 lacking the NTD and the CTT (residues 153-864) (Calcarisporiella thermophila).

As for “CtHsp104 lacking the NTD with mutated Walker B motifs (E275Q:E679Q) (domain or fragment)”, in experiment [1], the stoichiometry N (as a rule, a count of units in the complex or per binding partner) was 6.

Consider “CtHsp104 lacking the NTD (residues 153-882) (domain or fragment)”, for which the stoichiometry N in experiment [2] is 6.

In the case of “CtHsp104 lacking the NTD with mutated arginine fingers (R328M/R757M) (domain or fragment)”, the stoichiometry N in experiment [3] was 6. “CtHsp104 lacking the NTD and the CTT (residues 153-864) (domain or fragment)”: the stoichiometry N in experiment [4] is 6.
